Measurements published in FireProtDB.

B1: Acylphosphatase-1, P41500 (parent)
chain: MSMAEGDTLISVDYEIFGKVQGVFFRKYTQAEGKKLGLVGWVQNTDQGTVQGQLQGPASKVRHMQEWLETKGSPKSHIDRASFHNEKVIVKLDYTDFQIVK
B2: Cytochrome c2, P00094 (parent)
chain: MKISLTAATVAALVLAAPAFAGDAAKGEKEFNKCKTCHSIIAPDGTEIVKGAKTGPNLYGVVGRTAGTYPEFKYKDSIVALGASGFAWTEEDIATYVKDPGAFLKEKLDDKKAKTGMAFKLAKGGEDVAAYLASVVK
B3: Beta-lactoglobulin, P02754 (parent)
chain: MKCLLLALALTCGAQALIVTQTMKGLDIQKVAGTWYSLAMAASDISLLDAQSAPLRVYVEELKPTPEGDLEILLQKWENGECAQKKIIAEKTKIPAVFKIDALNENKVLVLDTDYKKYLLFCMENSAEPEQSLACQCLVRTPEVDDEALEKFDKALKALPMHIRLSFNPTQLEEQCHI
B4: Triosephosphate isomerase, P00943 (parent)
chain: MRKPIIAGNWKMHKTLAEAVQFVEDVKGHVPPADEVISVVCAPFLFLDRLVQAADGTDLKIGAQTMHFADQGAYTGEVSPVMLKDLGVTYVILGHSERRQMFAETDETVNKKVLAAFTRGLIPIICCGESLEEREAGQTNAVVASQVEKALAGLTPEQVKQAVIAYEPIWAIGTGKSSTPEDANSVCGHIRSVVSRLFGPEAAEAIRIQYGGSVKPDNIRDFLAQQQIDGPLVGGASLEPASFLQLVEAGRHE
B5: Phenylalanine--tRNA ligase, mitochondrial, O95363 (parent)
chain: MVGSALRRGAHAYVYLVSKASHISRGHQHQAWGSRPPAAECATQRAPGSVVELLGKSYPQDDHSNLTRKVLTRVGRNLHNQQHHPLWLIKERVKEHFYKQYVGRFGTPLFSVYDNLSPVVTTWQNFDSLLIPADHPSRKKGDNYYLNRTHMLRAHTSAHQWDLLHAGLDAFLVVGDVYRRDQIDSQHYPIFHQLEAVRLFSKHELFAGIKDGESLQLFEQSSRSAHKQETHTMEAVKLVEFDLKQTLTRLMAHLFGDELEIRWVDCYFPFTHPSFEMEINFHGEWLEVLGCGVMEQQLVNSAGAQDRIGWAFGLGLERLAMILYDIPDIRLFWCEDERFLKQFCVSNINQKVKFQPLSKYPAVINDISFWLPSENYAENDFYDLVRTIGGDLVEKVDLIDKFVHPKTHKTSHCYRITYRHMERTLSQREVRHIHQALQEAAVQLLGVEGRF

Variants of: B1
Conditions: Bos taurus; pH 5.5; 25 °C; Thermal; CD; sodium acetate 5 mM; reversible: Yes; structure 2ACY; whole UniProt chain shown

| Variant | ddG of mutation (higher = less stable) |
| --- | --- |
| MSMAEGDTLISVDYEIFGKVQGVFFREYTQAEGKKLGLVGWVQNTDQGTVQGQLQGPASKVRHMQKWLETKGSPKSHIDRASFHKEKVIVKLDYTDFKIVK [K27E E66K N85K Q98K] | -1.67 kcal/mol |

Same assay, conditions: Bos taurus; pH 5.5; Thermal; CD; sodium acetate 5 mM; reversible: Yes; structure 2ACY; whole UniProt chain shown

| Variant | change of melting temperature, mutant - wild type (higher = more stable) |
| --- | --- |
| MSMAEGDTLISVDYEIFGKVQGVFFREYTQAEGKKLGLVGWVQNTDQGTVQGQLQGPASKVRHMQKWLETKGSPKSHIDRASFHKEKVIVKLDYTDFKIVK [K27E E66K N85K Q98K] | 5.4 °C |

Same assay, conditions: Bos taurus; pH 7; 25 °C; Thermal; DSC; sodium phosphate 50 mM; reversible: Yes; structure 2ACY; whole UniProt chain shown

| Variant | ddG of mutation (higher = less stable) |
| --- | --- |
| MSMAEGDTLISVDYEIFGKVQGVFFREYTQAEGKKLGLVGWVQNTDQGTVQGQLQGPASKVRHMQKWLETKGSPKSHIDRASFHKEKVIVKLDYTDFKIVK [K27E E66K N85K Q98K] | -1.67 kcal/mol |

Same assay, conditions: Bos taurus; pH 7; Thermal; DSC; sodium phosphate 50 mM; reversible: Yes; structure 2ACY; whole UniProt chain shown

| Variant | change of melting temperature, mutant - wild type (higher = more stable) |
| --- | --- |
| MSMAEGDTLISVDYEIFGKVQGVFFREYTQAEGKKLGLVGWVQNTDQGTVQGQLQGPASKVRHMQKWLETKGSPKSHIDRASFHKEKVIVKLDYTDFKIVK [K27E E66K N85K Q98K] | 5.4 °C |

Variants of: B2
Conditions: Rhodobacter capsulatus (strain ATCC BAA-309 / NBRC 16581 / SB1003); pH 7.5; 30 °C; GdnHCl; CD; Tris 20 mM; structure 1C2R; whole UniProt chain shown

| Variant | denaturant midpoint (higher = more stable) |
| --- | --- |
| MKISLTAATVAALVLAAPAFAGDAAKGEKEFNKCKTCHSIIAPDGTEIVKGAKTSPNLYGVVGRTAGTYPEFKYKDSIVALGASGFAWTEEDIATYVKDPGAFLKEKLDDKKAKTGMAFKLAKGGEDVAAYLASVVK [G55S] | 0.86 M |
| MKISLTAATVAALVLAAPAFAGDAAKGEKEFNKCKTCHSIIAPDGTEIVKGAKTGANLYGVVGRTAGTYPEFKYKDSIVALGASGFAWTEEDIATYVKDPGAFLKEKLDDKKAKTGMAFKLAKGGEDVAAYLASVVK [P56A] | 0.9 M |

Variants of: B3
Conditions: Bos taurus; pH 7.1; 30 °C; GdnHCl; CD; phosphate 0.11 M; NaCl 0.04 M; structure 1B0O; whole UniProt chain shown

| Variant | ddG of mutation (higher = less stable) | unfolding free energy |
| --- | --- | --- |
| MKCLLLALALTCGAQALIVTQTMKGLDIQKVAGTYYSLAMAASDISLLDAQSAPLRVYVEELKPTPEGDLEILLQKWENGECAQKKIIAEKTKIPAVFKIDALNENKVLVLDTDYKKYLLFCMENSAEPEQSLACQCLVRTPEVDDEALEKFDKALKALPMHIRLSFNPTQLEEQCHI [W35Y] | 6.91 kcal/mol | 4.3 kcal/mol |

Variants of: B4
Conditions: Geobacillus stearothermophilus; pH 7.6; Thermal; DSC; TEA 100 mM; structure 1BTM; whole UniProt chain shown

| Variant | Tm | change of melting temperature, mutant - wild type (higher = more stable) |
| --- | --- | --- |
| MRKPIIAGNWKMNGTLAEAVQFVEDVKGHVPPADEVISVVCAPFLFLDRLVQAADGTDLKIGAQTMHFADQGAYTGEVSPVMLKDLGVTYVILGHSERRQMFAETDETVNKKVLAAFTRGLIPIICCGESLEEREAGQTNAVVASQVEKALAGLTPEQVKQAVIAYEPIWAIGTGKSSTPEDANSVCGHIRSVVSRLFGPEAAEAIRIQYGGSVKPDNIRDFLAQQQIDGPLVGGASLEPASFLQLVEAGRHE [H13N K14G] | 105 °C |  |
| MRKPIIAGNWKMHGTLAEAVQFVEDVKGHVPPADEVISVVCAPFLFLDRLVQAADGTDLKIGAQTMHFADQGAYTGEVSPVMLKDLGVTYVILGHSERRQMFAETDETVNKKVLAAFTRGLIPIICCGESLEEREAGQTNAVVASQVEKALAGLTPEQVKQAVIAYEPIWAIGTGKSSTPEDANSVCGHIRSVVSRLFGPEAAEAIRIQYGGSVKPDNIRDFLAQQQIDGPLVGGASLEPASFLQLVEAGRHE [K14G] | 73 °C | -3 °C |

Variants of: B5
Conditions: Homo sapiens; pH 7.5; 25 °C; Urea; CD; Tris-HCl 50 mM; transition: 2; structure 3CMQ; whole UniProt chain shown

| Variant | ddG of mutation (higher = less stable) | denaturant midpoint (higher = more stable) |
| --- | --- | --- |
| MVGSALRRGAHAYVYLVSKASHISRGHQHQAWGSRPPAAECATQRAPGSVVELLGKCYPQDDHSNLTRKVLTRVGRNLHNQQHHPLWLIKERVKEHFYKQYVGRFGTPLFSVYDNLSPVVTTWQNFDSLLIPADHPSRKKGDNYYLNRTHMLRAHTSAHQWDLLHAGLDAFLVVGDVYRRDQIDSQHYPIFHQLEAVRLFSKHELFAGIKDGESLQLFEQSSRSAHKQETHTMEAVKLVEFDLKQTLTRLMAHLFGDELEIRWVDCYFPFTHPSFEMEINFHGEWLEVLGCGVMEQQLVNSAGAQDRIGWAFGLGLERLAMILYDIPDIRLFWCEDERFLKQFCVSNINQKVKFQPLSKYPAVINDISFWLPSENYAENDFYDLVRTIGGDLVEKVDLIDKFVHPKTHKTSHCYRITYRHMERTLSQREVRHIHQALQEAAVQLLGVEGRF [S57C] | -0.43 kcal/mol | 5.9 M |
| MVGSALRRGAHAYVYLVSKASHISRGHQHQAWGSRPPAAECATQRAPGSVVELLGKSYPQDDHSNLTRKVLTRVGRNLHNQQHHPLWLIKERVKEHFYKQYVGRFGTPLFSVYDNLSPVVTTWQNFDSLLIPADHPSRKKGDNYYLNRTHMLRAHTSAHQWDLLHAGLDAFLVVGDVYRRDQIDSQHYPIFHQLEAVRLFSKHELFAGIKDGESLQLFEQSSRSAHKQETHTMEAVKLVEFDLKQTLTRLMAHLFGDELEIRWVDCYFPFTHPSFEMEISFHGEWLEVLGCGVMEQQLVNSAGAQDRIGWAFGLGLERLAMILYDIPDIRLFWCEDERFLKQFCVSNINQKVKFQPLSKYPAVINDISFWLPSENYAENDFYDLVRTIGGDLVEKVDLIDKFVHPKTHKTSHCYRITYRHMERTLSQREVRHIHQALQEAAVQLLGVEGRF [N280S] | -0.51 kcal/mol | 5.7 M |
